This data set in a line: soluble on expression in E. coli; label from the status in PepcDB or PDB records.
For “MSLKRSSICYRASKPLIASLVMSVWNAVHLSRRFAALPQAFYTPVHPQPLQNVRWGMWNSRLAQQFGLPEAPNDELLLSLSGQQLPADFSPVAMKYAGHQFGVYNPDLGDGRGLLLAEMATKQGEVFDIHLKGAGLTPYSRMGDGRAVLRSSLREYLCSEAMAGLGIATTRALALMSSETPVYREREERGALLVRLAHTHVRFGHFEHFFYTDQHANLKLLADKVIEWHFPDCVQTSKPYAAWFSQVVERTALMIAQWQAYGFNHGVMNTDNMSILGETFDYGPFAFLDDYDPNFICNHSDYQGRYAFDQQPRIGLWNLSALAHALSPLIDKDDLEAALGSYSERLNLHFSRLMRAKLGLATQQEGDGELFADFFALLANNHTDYTRFLRELSCLDRQGNEAVIDLVLDREAAKTWLTRYLERAARELGQEGRPISTRERCQAMRQVNPKYILRNYLAQQAIEFAERGDFEEMQRLATVLASPYAEHPEFERYAKLPPEWGKKLEISCSSEGGSHHHHHH”, the “soluble on expression in E. coli” value is reported as “soluble”. Then “MPVVTAVGRRRGFAMPWVSTARSGAVMLANYSAGVCGRVSSPGLNVRKMCLKANTPGAVTWLDTPKRFLSTQTASRCMAVNSSDVVTGRIDPQVLHTPLNTDVDGYAHAMHSSINSGPLEYLPATFSVFPALGDVGDLGGGVGAATYALDRLSNMRSGACVGGGESPWRSLMT”, with “not soluble”. Then “MGSDKIHHHHHHMTPSAGLGLKSQHYGDAIACDAEGLWFEVHPENYMSAGGPRLAALEAVRARRPVSLHGVGLSLAADTDPDPEHLQALKRLVDRFDPFVVSEHLAWSTHRGAHHPDLLPFPRTRAALDRICGNVARMQDALQRRVLIENPSLYLPLKGHALDEVDFLEALATRTGCGLLVDVNNVFVSAQNLGYAPETYLDALPAHAIGEIHLAGHAPDPGGSNLLIDTHGAPVAEVVWTLYARLIARIGPRPTLIERDDDIPDFAALMAERNRAVAVLASGQTAREPAHV”, with “not soluble”; and “SLTTFATEWEKQLELYPEEYRKAYRRVKRASEILLREPEPQVGLTPKEVIWTKNKTKLYRYIPKQEKTQRVPILLIYALINKPYIMDLTPGNSLVEYLVDRGFDVYMLDWGTFGLEDSHLKFDDFVFDYIAKAVKKVMRTAKSDE”, with “soluble”.

For “MINMKALVGGIILPVSSPPIKNGVLLFDEESGKIVAVGKKEEVTIPEDAEIIEAPGKYISPGFVDAHSHIGMIPDGLEWEFQEANDFYSPIAPHLRAVDGFDPYDEAFKEAIAGGVTTVATGPGSANVMGGIGLLAKTYEEGFEKIIKPEAFIKMALGPKRPREYKSKYPYPTTRMGTVALMRTWFKRAREFMEGKIKTDNIDEEEIEMLRLLARALKREIQVKIHLSTSPDEIYAAIRIIKEFNLNATIDHAFGSQLVADMLSREGIPVIYGPPMITRIASFFRYVDDKAPVLLFKKGVNVSIMTDHPVLPEKHLRLLAAVVARNGLSLDDALKLITINPAKALGIDRFVGSLEPGKDADIVISSDHPIKPTSKIEIVFGRGREVYKAD”, the “soluble on expression in E. coli” value is on record as “soluble”.

Take “GPGSMSATEAVVEPKAPDVCTEANERPPTESGVAAPVKRLFDLLQEDSKERVVRLLTAFRELTLLEQESLAQEMGVTLPKEEKWRAPCPLIARQPSGPSLEVRRRDPSYVALCPSVSSALRELGSKEAARRLPDADLRKLVEGALGEDGVYLTVPESDGEGCAAASERVGVVDDGKPPLLVRSRCYQALRLARDEEIETDAQYTRPRVLNVTGIPLEESDVWEWFNLLDVARNGTVGVDAFLTSVRELDRGFGTSSKVQEAFEDESRSLSVDGQLSFDKFAYLVTRFSRY”: the “soluble on expression in E. coli” value was “soluble”. Then “MKKIKLGFAPTRRSIFSAPDAVKYRGLTAQRLKELGVDFVDITDINEEGLLYDDKDVDKIVEKFKKEGVDGLMLPHCNFGTEYVCARLAKKLDVPVLLWGPLDERPEPNGVRLRDTQCGLFATGKVLRRFQIPFTYLTNCRLNDPVFERGVKDFLAVCNVVKTFKNIRILQISTRPFDFWTTMCNEGELLEKFNIQLAPVPMTELTEEVKTVREDKEKMEQMIAYIKDTMVIKIKEEEVEMVAALALAMKSLVEKYGCQAAAIQCWNALQTEIGIMPCAANAILNEQGIPVVCETDIHGAVTALLAEAAGMDEKRGFFADWTIRHPDIENGELLQHCGPWPMSVAQEKPELTYPLAFEHPGSLTAEAKHGEVTLCRFDGDNGEYSLLLGNAKGVDGPKGMGTYLWVEVENIKRLEAKIVEGPYIHHCVGIHKNVVPVLYEACKYIGVKPDLYDPIEEDVKAYLRGE”, with “not soluble”; and “GGHTVPKPFNLSKGKRKHEEASDYVSTAEQVIAFYKRTPARYHLRSRQREMEGPSPVKMIKTKLTNPKTPLLQTKGRHRPV”, with “soluble”; and “SYLYTLYSDVRTEVAKMERVAWLEVVGKFETEKLTPNSLYEVVFVVKLIDSAKGWDFRVNFKLVLPTGETKERRENVNLLERNKWVEIPAGEFMISPEHLSGKIEFSMLEVKSDQWKSGLIVKGVAIRPKN”, with “soluble”. Take “MGHHHHHHSHMAATSGTDEPVSGELVSVAHALSLPAESYGNDPDIEMAWAMRAMQHAEVYYKLISSVDPQFLKLTKVDDQIYSEFRKNFETLRIDVLDPEELKSESAKEKWRPFCLKFNGIVEDFNYGTLLRLDCSQGYTEENTIFAPRIQFFAIEIARNREGYNKAVYISVQDKEGEKGVNNGGEKRADSGEEENTKNGGEKGADSGEEKEEGINREDKTDKGGEKGKEADKEINKSGEKAM”: the “soluble on expression in E. coli” value is “not soluble”.

Consider “MSLQPAPFLILDDDDVFAQTLARALTRRGFAPQIAHTGGEALSLARQTPFAYVTVDLHLAASDRGLMPHGGTDSGLHWIAPLRQALPEARMLVLTGYASIATAVQAVKLGADEYLAKPANVDSILLALQVGVSEAVAEQTMENPAPLSVARLEWEHIQRVLSEHGGNISATARALNMHRRTLQRKLGKRPVAEGHHHHHH”, for which the “soluble on expression in E. coli” value is recorded as “soluble”.

In the case of “SPRPRKRQTGTAGPDRKKLSGKRTKTENSESTSVKLENSSLEMTTTFKNGGKNLSNYWLMKSEPESRLEKGIDMKFSIEDLKAQPKQTACWDGVRNYQARNFLRAMKLEDEAFFYHSNCKQPGIVGLMKIVKEAYPDHTQFEKSNPHYDPSSKEDDPKWSMVDVQFVRMMKRFIPLEELKTYHQAHKATGGPLKSMTLFTRQRLSVQPLTQEEFDFILSLEETEPS”, the “soluble on expression in E. coli” value is “soluble”. Regarding “MKIDILTLFPDMFTGVFGSSILKKAQEKEAVELRVVNFRDYTTSKHNSVDDYPYGGGAGMVLTPQPIFDAVEDLTKETERKPRVVLMCPQGERFTQKKAEELAEEEHLIFVCGHYEGYDERIREHLVTDEISIGDYVLTGGELASMVITDSVVRLLPGVLGNHASQVEDSFSTGLLEHPHYTRPADFRGMKVPDVLMSGNHKNIDEWRHKESLRRTYTRRPDLLEERELSKQEKKWLEQIKEGK”, the “soluble on expression in E. coli” value is recorded as “not soluble”. Then “MGSDKIHHHHHHMSLRDKIEELKKIEKEIEQGGGPEKVEKQHRAGKLTAWERLELLLDPGTFVEIDKFVEHRNTYFGLDKVKLPRDGVITGVGEINGRKVAVFSQDFTVMGGSLGEMHAKKIVKLLDLALKMGIPVIGINDSGGARIQEGVDALAGYGEIFLRNTLASGVVPQITVIAGPCAGGAVYSPALTDFIVMVDQTARMFITGPNVIKAVTGEEISQEDLGGAMVHNQKSGNAHFLADNDEKAMSLVRTLLSYLPSNNAEEPPVEDPDTSLETPEDILDILPDNPNKGYDVRDVIKRVVDHGEFFEVQPYFAKNIVIGFARIQGKTVGIVANQPSVLAGVLDIDSSDKAARFIRFLDAFNIPILTFVDTPGYLPGVAQEHGGIIRHGAKLLYAYSEATVPKITVILRKAYGGAYIAMGSKHLGADMVLAWPSAEIAVMGPEGAANIIFKREIEASSNPEETRRKLIEEYKQQFANPYIAASRGYVDMVIDPRETRKYIMRALEVCETKVEYRPKKKHGNIPL”, with “soluble”. For “GSLTTISSILSLKREKPDNLAIILQIDFTKLKEEDSLIVVYNSLKALTIKFARLQFCFVDRNNYVLDYGSVLHKIDSLDSISNLKSKSSSTQFSPIWLKNTLYPENIHEHLGIVAVSNSNMEAKKSILFQDYRCFTSFGRRRPNELKIKVGYLNVDYSDKIDELVEASSWTFVLETLCYSFGLSFDEHDDDDEEDN”, the “soluble on expression in E. coli” value is “soluble”.

As to “MAHHHHHHMTERSPALVPAVSLLREELQLLNGVVEGQARSRVYRHHIFFRKASFLRSALRNALPQFARRAADPTDLRTVAGRLLTLTIRCAESATLELSASHIDTVSVALLLLAITSRIGCVLCVVLGRKPETFGKLHFIGSKFGVKYKRSRSEAELAEETIGVATPIRRRTIGGVIEAVIK”, the “soluble on expression in E. coli” value was “not soluble”. The value for “SLHELSIVESLIELCEENALNNKAYNVQEIYVKIGRLSGIEVDLFKRCFETFKENSNICKNAKLFIELAPLEILCLKCDQTSILEENVFKCPKCQSIEYKIIQGEDLHLMRLVMK” was “soluble”; that for “MGSDKIHHHHHHLSREARYLEEARGFYQSGKFSSAGIYARKVIRREPSNGEAQALLGHLAFRSGEHQEAMSCYLKAQAAGFQDQELRLNLVTLHERREAFFDAVNLLRELVEETPQDLSLQLRLGINASRTGDMTTAESALLAALAGDEQAAQASLNLGHVYKAKGDTDKAAAFYHDYIRLAPSQQATAYWSLADLKNYRFTEQDEAALKANIAAEEFSQASQSLFHFALNRVYEQRKQGEQAFDAVRMANQLMRPLRPFKREAFTRLVDSLKSAEVKPRGEETSGPWTPIFIVGMPRSGTTLCEQILASHSQIAATDELPFMERLALSLEMKGGYGAMLPRLSEEQIAQMRQQYIEQVNQYLKAQGEASPSLVPSLVIDKNPNNFIHIGLIKTLFPEAKIINVIRDARDNAMGVYKQHFSHGHDYSYHLDDICHYWQLYLELMAHWQQAYGDSLYHLCFEQLVKAPDQQIPAMVDYVGLALEPACLKFYESKRSVLTPSASQVRRPMNVKAIGQSEAYAAFIPNAYRTLTVIADRAHKSFLS” was “not soluble”; that for “MGSDKIHHHHHHMMTDARTTAEGGMETSYGFHKVDEGKKQGLVNEVFHKVAKRYDIMNDVMSAGLHRLWKDAMVSALSPRKDPSYKILDVAGGTGDVAFRIIEASNRLAHATVLDINGSMLAVGEERAAKKKLSDNLTFVEANAEELPFEANTFDAYTVAFGIRNVPRIDVALKEAYRVLKRGGRLLVLEFSEVDMPLLDRVYDAWSFNAIPQFGKMITGDAEPYQYLVESIRKFPNQEDFATMIRTAGFSRVTYTNYTGGIAALHSGWKL” was “not soluble”. Then “MDKHQQAIITVSAYITNDTGEVLLVKSYDRSDTWEMPGGQVEPGEPLDRAVHREVYEETGVDIRLIGVSGVYYNETKNIINIVFKATYVKGNVSPQPEEIQKAKFVLIDESNIDEYVTWPHLKSRVLDAMKRECSVPYETWVMNPSRLSARVGR”, with “not soluble”.

“MGSDKIHHHHHHMGSAAQFRRWIRPSARLCNAPFIRATVQVHWRNLYLLSRRSAPRRFHADQEKDMTPRSIIAAGALFAAVATAPAAWASSTYMGALTEAEVLAAQKAWGEALVAISREHEAGGQAKAKALASTVLDKAYGYNLGPVLFKPTLTMAPQTFRTTKDGALAYFVGGDPNYPNDKGFALQGWRSVAIKNAAIQIHGDVATTTGNVMITDKNGNVTTVDKTWAFKKTDDGAIRIVVHHSSLPYTAK”: the “soluble on expression in E. coli” value is “not soluble”. Then “MSESLRNTITKIVVEKIRCKSLMFMPSHVCATFPFNTQNALVVDIGHSECIAVPIIEGVTMLNEFESARSICGRQLERRVREQMEKYGQIAELNGERRAITENDWQDIDACKLIETLSLSLICLDKERAENWTKWEASEEGEKPDIETLCKERLFPNNGKIFVVPPVVFETSTEIFFNENLNPTSFDLSLPKLLHKLVSKCPIDLRKKLFPNILLTGGVSTIPGLMKRLEQEIQVIDEKNNSKIAVIVKFYQFSEIKNTPLFVSWLGASLLGSLRETIERKSLTLEEWKNGKLAADWTDIIVKSR”, with “not soluble”.
